# Measurements: article PMC7900914
# Target: HLA-B*57:01–T3N (human | not stated | HIV-1)
# Assay: SPR
substance,measurement,value
"KIR3DL1*001 (similar construct, from insect cells) (from UniProt P43629 22-444) (receptor)",Kd,100 µM
